Assays:
[1] = molecular target: Bat CoV Rs2018B (SC1r-CoV Rs2018B)
[2] = molecular target: Bat CoV BANAL-52
[3] = molecular target: Bat CoV RsSHC014 (SC1r-CoV RsSHC014)
[4] = molecular target: SARS-CoV-2
[5] = molecular target: SARS-CoV-2 Delta
[6] = molecular target: Bat CoV BANAL-236
[7] = molecular target: Pangolin CoV GX-
[8] = molecular target: Bat CoV LYRa11
[9] = molecular target: Bat CoV WIV-1 (SC1r-CoV WIV-1)
[10] = molecular target: Pangolin CoV GD-1
[11] = molecular target: SARS-CoV-1
[12] = molecular target: SARS-CoV-2 Mu
[13] = molecular target: SARS-CoV-2 Delta Plus
[14] = molecular target: SARS-CoV-2 Lambda (SARS-CoV-2 Lambda)
[15] = molecular target: SARS-COV-2 B.1.351 RBD (SARS-CoV-2 B.1.351 (Beta))
[16] = molecular target: SARS-COV-2 Omicron BA.2 RBD (SARS-CoV-2 Omicron BA.2)
[17] = molecular target: SC2r-COV RaTG13 RBD (SC2r-CoV RaTG13 (bat))
[18] = molecular target: SARS-COV-2 Omicron BA.1 RBD (SARS-CoV-2 Omicron BA.1)
[19] = molecular target: SARS-CoV-2 Gamma

Binder	IC50 [1] [µg/mL]	IC50 [3] [µg/mL]	IC50 [5] [µg/mL]	IC50 [7] [µg/mL]	IC50 [8] [µg/mL]	IC50 [9] [µg/mL]	IC50 [10] [µg/mL]	IC50 [11] [µg/mL]	IC50 [13] [µg/mL]	IC50 [14] [µg/mL]	IC50 [15] [µg/mL]	IC50 [16] [µg/mL]	other results
F5 (antibody, V domains shown) VH: QVQLQESGPGLVKPSETLSLTCTVSGGSIIGYYWSWIRQPPGKGLEWIGYIYFSANTNYNPSLKSRVTMSVDMSKKQFSLKLRSVTAADTAVYYCARGGGYLETGPLDFWGQGILVTVSS VL: DIVMTQSPLSLPVTPGEPASISCRSSQSLMQLNGYNYLAWYLQRPGQSPQLLIYLGSTRASGVPDRFSGSGSGTDFTLKITRVEAEDVGVYYCMQGLQIPGTFGQGTRLEIK	0.015	0.012	0.034	0.025	0.01	0.012	0.019	0.019	0.03	0.014	–	–	IC50 [2]: 0.027 µg/mL; IC50 [4]: 0.03 µg/mL; IC50 [6]: 0.033 µg/mL; IC50 [12]: 0.024 µg/mL
Antibody 11 (SS6V11-E7) (antibody, V domains shown) VH: QVQLQESGPGLVKPSETLSLTCTVSGGFIGPHYWSWVRQPPGKGLEWIGYIYISGSTNYNPSLKSRLTISVDMSKSQFSLTLSSATAADTAVYYCARGGGYLETGPFEYWGQGTLVTVSS VL: DIVMTQSPLSLPVTPGEPASISCRSSQSLLQNNGYNYLAWYLQKPGQSPQLLIYLSSTRASGVPDRFSGSGSGTDFTLKISRVEAEDVGVYYCMQSLQIPGTFGQGTRLEIK	–	–	–	–	–	–	–	–	–	–	0.044	0.222	–
Antibody 20 (SS6V20-F5) (antibody, V domains shown) VH: QVQLQESGPGLVKPSETLSLTCTVSGGSIIGYYWSWIRQPPGKGLEWIGYIYFSANTNYNPSLKSRVTMSVDMSKKQFSLKLRSVTAADTAVYYCARGGGYLETGPLDFWGQGILVTVSS VL: DIVMTQSPLSLPVTPGEPASISCRSSQSLMQLNGYNYLAWYLQRPGQSPQLLIYLGSTRASGVPDRFSGSGSGTDFTLKITRVEAEDVGVYYCMQGLQIPGTFGQGTRLEIK	–	–	–	–	–	–	–	–	–	–	–	0.246	IC50 [17]: 0.015 µg/mL; IC50 [18]: 0.072 µg/mL
E7 (antibody, V domains shown) VH: QVQLQESGPGLVKPSETLSLTCTVSGGFIGPHYWSWVRQPPGKGLEWIGYIYISGSTNYNPSLKSRLTISVDMSKSQFSLTLSSATAADTAVYYCARGGGYLETGPFEYWGQGTLVTVSS VL: DIVMTQSPLSLPVTPGEPASISCRSSQSLLQNNGYNYLAWYLQKPGQSPQLLIYLSSTRASGVPDRFSGSGSGTDFTLKISRVEAEDVGVYYCMQSLQIPGTFGQGTRLEIK	0.032	0.022	0.097	0.039	0.021	0.03	0.073	–	–	0.032	–	–	–
Antibody 13 (SS6V13-F1) (antibody, V domains shown) VH: QVQLQESGPGLVKPSETLSLTCSVSGVSILGSYWGWIRQPPGTGLQWIGYIYFSENTNYNPSLQSRVTMSLDTSKNLLSLKLSSVTAADTAVYYCARGGGYLETGPFDSWGQGTLVTVSS VL: DIVMTQSPLSLPVTPGEPASISCRSSQGLVQSNGYNYLAWYLQKPGQSPQLLIYLGSNRASGVPDRFSGSGSGTDFTLKISRVEAEDVGVYYCMQGLQTPGTFGQGTRLEIK	–	–	–	–	–	–	–	–	–	–	0.087	–	–
F1 (antibody, V domains shown) VH: QVQLQESGPGLVKPSETLSLTCSVSGVSILGSYWGWIRQPPGTGLQWIGYIYFSENTNYNPSLQSRVTMSLDTSKNLLSLKLSSVTAADTAVYYCARGGGYLETGPFDSWGQGTLVTVSS VL: DIVMTQSPLSLPVTPGEPASISCRSSQGLVQSNGYNYLAWYLQKPGQSPQLLIYLGSNRASGVPDRFSGSGSGTDFTLKISRVEAEDVGVYYCMQGLQTPGTFGQGTRLEIK	–	–	0.12	–	0.031	0.037	–	0.073	0.112	–	–	–	IC50 [19]: 0.082 µg/mL

Source: patent US20240254204A1 (published 2024)
